± gives the uncertainty stated by the source.
Assay: amyloid nucleation score (Sup35N fusion, yeast selection) (log enrichment); library NNK2; higher = more nucleation; inactive = no reads after selection
In short: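 The nucleation score equals the log enrichment of output over input reads from DiMSum, centred on the mode score of non-aggregating sequences. It was computed only for sequences with 100 or more input reads. The reads came from Illumina sequencing of plasmid inserts from psi-negative yeast expressing Sup35N fused to peptides of 20 random codons, induced with 100 μM copper sulfate for 24 hours and grown 7 days at 30°C without adenine and uracil.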

| Substance | amyloid nucleation score |
| --- | --- |
| NDKTYLPGRHSYGSCYVIVW | 0.561 ± 0.64 |
| LVLYVSKMPYMSEPRSIILR | 0.64 ± 0.58 |
| DFLSGTMVDETSDKGISLLV | 0.605 ± 0.47 |
| DHRIWKAAREVVLVCHL | 0.629 ± 0.4 |
| PSVTRVLSLVILEAPNA | 2.76 ± 0.14 |
| FPIVFTTKCDIFLSYSLLPS | 1.7 ± 0.13 |
| VSVRGTHVL | -0.28 ± 0.61 |
| STMVVRVFIGNVFMSFNMIR | 4.36 ± 0.059 |
| NGRLWNGFMYCGWTNWFFCV | 1.11 ± 0.34 |
| VKWKLGLTWMVVIIDGVLCV | 0.963 ± 0.35 |
| SDCFMGANDVMNKLEYGLDA | 0.091 ± 0.22 |
| FSVYRETERLGMSFRVRLWM | 5.25 ± 0.073 |
| EIARLTNLDWTNISTFL | -0.698 ± 1.1 |
| FPVSVTTISPNIYGQPNTWC | -1.41 ± 0.45 |
| TMYYRNRGLVSEPKNYNGNE | -0.246 ± 0.61 |
| VKLVCSDFKMACTSSSMSVD | 0.861 ± 0.24 |
| RLSVA | 1.24 ± 0.26 |
| ELGYCYSFGHSQFFKQSKHG | 3.03 ± 0.071 |
| KVQHLQR | 0.403 ± 0.26 |
| MAESELQICMFYTMGCWDMV | -0.165 ± 0.42 |
| ILIKIKRWSFRFPFGFGKLD | inactive |
| FNHLRSARILPGFFSFSRFK | -1.35 ± 0.54 |
| RLHEYVSLLRGNQRVAHSRS | 3.893 ± 0.037 |
| VFVARITSRTIIVLNESGFE | 5.21 ± 0.089 |
| KVSDRVGLEPKVCAQRRRNL | 0.025 ± 0.27 |
| PSNNIFSLLFLVLKHFIDMR | inactive |

| Substance | amyloid nucleation score |
| --- | --- |
| IQVLVLPISYISIRGQKWRN | 7.19 ± 0.08 |
| STIEAGCTVVCA | 0.24 ± 0.49 |
| VYQMCFMAILVIRIVR | 0.439 ± 0.25 |
| LVVNASLRWIRHWSKGF | 4.515 ± 0.035 |
| IRMEFCDAMTICLLKQR | 3.72 ± 0.056 |
| DFLVYCGLLEQLWLLSDAKC | -0.356 ± 1.1 |
| FFFLTHGWEPTVMKEIKSAM | inactive |
| DPPSSFEFMCLRLWV | 3.35 ± 0.085 |
| HKRFKEGLSG | 0.047 ± 0.36 |
| GGWLYANGEYWWSTG | 1.53 ± 0.58 |
| SQILTMWYLVIYYMSNRFGG | inactive |
| DLSISSLGFQNIVLSHDNGY | -1.13 ± 1.1 |
| SLDQFSLSPKAVQRVACVAQ | 0.251 ± 0.54 |
| YDGAIDITTGLFLCFWVCTV | 3.96 ± 0.047 |
| NSMPATIYFMRSPDIGFSV | 2.81 ± 0.16 |
| IKHDLSTFNNFSPVSWNMVY | -0.307 ± 0.79 |
| RMFSIRFMWCFCSRRKPLLG | inactive |
| LIVWT | 0.593 ± 0.54 |
| FSSFVNREKMFIHFSNVVYF | 1.44 ± 0.1 |
| MCGKFNTSSCIEIYRDSEFM | -0.432 ± 0.23 |
| FIITNWQVSFRL | 4.383 ± 0.042 |
| DCQVSTLAYWSRVKMFQYQK | 3.71 ± 0.077 |
| PRCLDLLDIFV | 0.072 ± 1.1 |
| SYRELIYRDWLYRHVTL | 1.1 ± 0.11 |
| AHIREMNVSGGCWLVQWVSK | 9.497 ± 0.038 |
| VIYFHHVTYSIYPLL | 0.561 ± 0.62 |

| Substance | amyloid nucleation score |
| --- | --- |
| ILRFEAIYFEIMPHVYKVVK | -0.409 ± 0.38 |
| RSVACVDDMHE | 4.916 ± 0.049 |
| LVVLLMRWSLPLNVESGMF | -0.105 ± 1.1 |
| NFNGYM | -1.09 ± 0.3 |
| CKKKSRTDCMLSFCVCFDGV | 7.276 ± 0.035 |
| NCSSMFCIICKKCCVDAFIL | 3.73 ± 0.048 |
| WFLGMGKFHRRAWAARLFMV | 2.45 ± 0.12 |
| MWTIIMGMVILPRNRNL | 3.8 ± 0.078 |
| NISGV | -0.644 ± 0.76 |
| DDCKQRTHNDYMD | 0.175 ± 0.37 |
| RYGPIWGYCNKLFWARCTQL | 0.2 ± 0.49 |
| CIMVSIVPKGVCLGVLVAVA | 0.345 ± 0.28 |
| PKLPLAESR | -0.11 ± 0.53 |
| RMKSFLLNFARNSLCVVRHG | 1.43 ± 0.41 |
| GLDCIVSINRVQLTSAGLIE | 0.382 ± 0.47 |
| MSSNYWY | -0.916 ± 1.1 |
| ILLVYTLHRCLSSRVNEYQM | 4.22 ± 0.052 |
| RDQRLCV | -1.18 ± 1.1 |
| RLHPMRSNI | -0.43 ± 0.3 |
| PEDLLGRWIIFSYVFTIYSI | inactive |
| SFFQESHKRIDRVYKYGMGS | -0.96 ± 0.28 |
| QDYTDHPGIIFSFRGCSRDT | inactive |
| PRRECVVRSAVPWYRRSRE | 1.71 ± 0.35 |
| AYFTYDNANLFDPFTRYTIE | 0.073 ± 0.55 |
| NGITDV | -0.414 ± 0.45 |
| YFNIYAVEIVLGIRLFNNVD | 1.99 ± 0.067 |

| Substance | amyloid nucleation score |
| --- | --- |
| EKVNLSTSCRVA | 0.664 ± 0.34 |
| VPGDDPSIVTVMQMYGFSLI | -0.385 ± 0.64 |
| AWLYFVLFNRVTCCMTNVEE | 9.571 ± 0.037 |
| CLCCYTIM | 7.381 ± 0.044 |
| TIYWECYMDILARSGAMWVW | -1.34 ± 0.49 |
| FPARFHACLDYKWFGTGRPS | 2.41 ± 0.12 |
| IIRTTSNRPTPLRCSPNLSM | -0.779 ± 0.33 |
| IFSEGSTSSGSFGTKL | -1.6 ± 0.61 |
| HGASSVAFNLLLSCVSWVGC | 7.468 ± 0.04 |
| NISSLSNNARVIVYFCVRYQ | inactive |
| HYITKFSYDLGRKAKALVLS | -0.626 ± 0.54 |
| SGPRLTYSTLSKICALVQAE | 0.457 ± 0.34 |
| KYCCWLRCGLIYNWGGNQDV | 5.14 ± 0.064 |
| FHCVVVYNNRQMCSVTKDSS | 7.962 ± 0.031 |
| IDDCVKGKTPGNSGNMFCLP | -1.06 ± 0.42 |
| WNLFMQYAFYRMDLASK | -0.689 ± 1.1 |
| QGEEVGWFRFGRKSGAINMV | 0.076 ± 0.36 |
| GWSYNLSETLKQSVESVLTS | 1.42 ± 0.44 |
| SLVIKTLMIFAYSGATVSRG | -0.545 ± 0.64 |
| KRDRIAFPMEIDDIIKAWM | -0.929 ± 0.55 |
| LGGLSDVFQNRPLMTYGAWS | -0.303 ± 0.35 |
| PSGNQELLGTMTWIRKVTQS | -0.86 ± 0.34 |
| CCFTGIKGSYCFSWLACG | -0.082 ± 0.3 |
| RFCWC | 7.365 ± 0.042 |
| GSVYKCLGSWVIYRFIFSWV | 1.19 ± 0.66 |
| YYMVSP | -0.093 ± 0.33 |

| Substance | amyloid nucleation score |
| --- | --- |
| CSRGP | 0.534 ± 0.64 |
| GLSCVFRMRIE | 6.266 ± 0.05 |
| HSWVFLWRGNCSFWRDSFKV | inactive |
| GENTRSINVSSGMQEQSRKT | 0.523 ± 0.38 |
| VSDLLPVSDGSFTNPIVMLV | 0.323 ± 0.26 |
| KNSCSMYVMMCGSQVLGLVS | 7.75 ± 0.084 |
| CKWWGRGEGDIVVLWLSEKL | 0.942 ± 0.66 |
| RFMFPRTSIVWNASYVVGVL | 2.92 ± 0.11 |
| LTIVLQLGLL | 8.52 ± 0.066 |
| PAIHVVDTRVGWRHSMSGYS | 1.72 ± 0.15 |
| QVLLFQWLSGDYQMIKMMRW | -0.207 ± 0.45 |
| LLGSLLIFPMES | -1.52 ± 0.78 |
| LSVTPIFGRNTDTLESGL | -0.093 ± 0.55 |
| HQFYHFAEENN | -0.249 ± 1 |
| GTAYAHFFEVNFTSKLLAEF | 1.76 ± 0.18 |
| RPSSWVVRCE | 0.223 ± 0.41 |
| DRVFLFFKKRPGPWMMARLY | inactive |
| LWRSVAKIVSPN | -1.74 ± 0.78 |
| HQRYSRLLIKKCYTSASVPC | -0.245 ± 0.62 |
| TTPGTDSLMAEII | 1.01 ± 0.49 |
| RFHELCV | 0.998 ± 0.74 |
| IFWVVEFWIYYTSFLSWETR | 0.455 ± 0.51 |

— the supplement of paper PMC12042874
